This note sets out measurements from paper PMC8594881.

Assay type in all cases: biochemical, Streptomyces melanosporofaciens
Substrate in data set [1]: CC(C)=CCC/C(C)=C/COP(=O)(O)OP(=O)(O)O
The experiment in a line: steady-state kinetics. The conditions noted are these: prenylation; saturating indole as co-substrate; Mg2+-dependent.

Substrate in data set [2]: c1ccc2[nH]ccc2c1
The experiment in a line: steady-state kinetics. The conditions noted are these: prenylation acceptor; saturating GPP as co-substrate; Mg2+-dependent.

Substrate in data set [3]: CC(C)=CCC/C(C)=C/CC/C(C)=C/CC/C(C)=C/COP(=O)(O)OP(=O)(O)O
Briefly: steady-state kinetics, nonlinear fit of initial velocities. The conditions noted are these: cyclization reaction; Mg2+-dependent.

B1: cyclooctat-9-en-7-ol synthase (CotB2) (Streptomyces melanosporofaciens) (protein)
chain: MTTGLSTAGAQDIGRSSVRPYLEECTRRFQEMFDRHVVTRPTKVELTDAELREVIDDCNAAVAPLGKTVSDERWISYVGVVLWSQSPRHIKDMEAFKAVCVLNCVTFVWDDMDPALHDFGLFLPQLRKICEKYYGPEDAEVAYEAARAFVTSDHMFRDSPIKAALCTTSPEQYFRFRVTDIGVDFWMKMSYPIYRHPEFTEHAKTSLAARMTTRGLTIVNDFYSYDREVSLGQITNCFRLCDVSDETAFKEFFQARLDDMIEDIECIKAFDQLTQDVFLDLIYGNFVWTTSNKRYKTAVNDVNSRIQ
For B1, the Michaelis-Menten constant (Km) in “steady-state kinetics [1]” is 390 ± 20 µM; in “steady-state kinetics [2]”, 290 ± 60 µM; in data set [3] it was 43 ± 6 µM. For the same protein, the kcat entry in data set [3] is given as “(6.7 ± 0.3) × 10^−3 s^−1”.

The Km is the substrate concentration at which the rate is half of its maximum.
